From US20090069241A1, “Compositions and Methods for Use of Pigment Epithelial Derived Factor (PEDF) Peptide Fragments” (Yale University, priority 2006, published 2009)

How the values were obtained:
[1] = tested on: inner retina (INL, IPL, retinal ganglion cell layer); test: Transient retinal ischemia-reperfusion injury with intravitreous injection; morphometric analysis of inner retina; type: in vivo, C57/B16 mice; design: thickness of the INL compared with non-ischemia control / thickness of the IPL compared with non-ischemia control / surviving cells in the RGC layer compared with non-ischemia control: concentration or dose not given beside the values; settings: for surviving cells in the RGC layer compared with non-ischemia control / thickness of the INL compared with non-ischemia control / thickness of the IPL compared with non-ischemia control: single intravitreous injection immediately after ischemia
Experimental: Induction of transient retinal ischemia in C57/B16 mice: Animal experiments were conducted in accordance with ARVO guidelines and were approved by the Animal Care and Use Committee of Yale University School of Medicine. Transient retinal ischemia was induced in one eye and the contralateral eye served as control. During the operation and recovery period, animals were placed on water heating pads at 37° C. […] Briefly, animals were anesthetized by i.p. injection of a mixture of 100 mg/kg Ketamine+10 mg/kg Xylazine. […] The anterior chambers were cannulated in fully anesthetized animals with a 30-gauge infusion needle connected by PE10 polyethylene tubing and IV set to a physiological saline reservoir. The intraocular pressure (IOP) of the cannulated eye was raised to 120 mmHg for 60 minutes by elevating the saline reservoir. Retinal ischemia was confirmed by direct microscopic observation of whitening of the fundus. The reperfusion was confirmed visually when needle was withdrawn from the anterior chamber. One group of animals was treated with Vetropolycin® ophthalmic ointment (Pharmaderm, Melville, N. Y.) on the ischemic eyes and allowed to recover for 24 hours, 48 hours, 7 days and 14 days before sacrifice. Other groups were kept for intravitreous injections of the PEDF and PEDF peptides.
Intravitreous injection of PEDF, PEDF peptides and encapsulated PEDF peptide: One group of animals remained uninjected to monitor ischemic damage. All other groups received intravitreal injections, which were performed under an ophthalmic microscope. […] Intravitreous injection was performed with 30-gauge beveled needle attached to PE10 polyethylene tubing and a 10 μl syringe (Hamilton, Reno, Nev.). The injections were performed through the sclera, approximately 1 mm behind the limbus. The needle remained in the vitreous cavity for 30 seconds after injection then gently withdrawn. Control groups were injected with 1 μl PBS, 1 μl control peptide (1 μg/μl), or blank nanospheres (0.1 mg/μl). […] Vetropolycin® ointment was applied to the injected eyes and animals were allowed to recover for 48 hours or 7 days before sacrifice.
Preparation of retinal tissue: at designated time points, mice were sacrificed by carbon dioxide inhalation followed by, in some cases, cervical dislocation. The eyes were enucleated, fixed in 4% paraformaldehyde for 24 hours, washed with PBS and embedded in paraffin. Five (5) μm thick sections that included the optic nerve were collected. Sections were processed for TUNEL, immunocytochemistry, or histochemical staining with hematoxylin and eosin (Surgipath, Ltd, Richmond, Ill.) using standard methods.
Morphologic and Morphometric Analysis: For each eye, three sections, which included the optic disk and were spaced at least 20 μm apart, were used for morphological analysis. The fields analyzed were 4×250 μm zones sampled from all retinal eccentricities. These zones were 500 μm away from the edge of optic disk or the ora serrata. The average measurement of these 4 zones was used for statistical analysis. The mean thickness of inner nuclear layer (INL) and inner plexiform layer (IPL) was measured using Axiovision3.1 software (Carl Zeiss MicroImaging, Inc., Thornwood, N.Y.). Total surviving cells in the retinal ganglion cell layer at the same locations were counted using light microscopy.
Statistical analysis: Twelve fields per retina were analyzed for each treatment, and a total of 72 fields were used. For statistical analysis, one-way analysis of variance (ANOVA) and Fisher tests were performed; p<0.05 was taken as significant. Data are presented as means and standard deviations.

GFAP = GFAP immunocytochemical labeling of Müller glial cells after transient ischemia; type: in vivo, C57/B16 mice
Experimental: Induction of transient retinal ischemia in C57/B16 mice: Animal experiments were conducted in accordance with ARVO guidelines and were approved by the Animal Care and Use Committee of Yale University School of Medicine. Transient retinal ischemia was induced in one eye and the contralateral eye served as control. During the operation and recovery period, animals were placed on water heating pads at 37° C. Eighty-one 10-14 weeks male C57/B16 mice (Charles River Laboratories, Wilmington, Mass., weighing […]) were used in this experiment. To induce retinal ischemia, a previously established technique with some modifications was used (Hughes, 1991, Exp Eye Res. 53(5):573-582; Buchi et al., 1991, Opthalmologica 203 (3): 138-147). Briefly, animals were anesthetized by i.p. injection of a mixture of 100 mg/kg Ketamine+10 mg/kg Xylazine. The corneas were topically anesthetized with 0.5% proparacaine hydrochloride (Bausch & Lomb Pharmaceuticals, Inc., Tampa, Fla.), and the pupils dilated with 2.5% phenylephrine (Bausch & Lomb Pharmaceuticals, Inc., Tampa, Fla.). The anterior chambers were cannulated in fully anesthetized animals with a 30-gauge infusion needle connected by PE10 polyethylene tubing and IV set to a physiological saline reservoir. The intraocular pressure (IOP) of the cannulated eye was raised to 120 mmHg for 60 minutes by elevating the saline reservoir. Retinal ischemia was confirmed by direct microscopic observation of whitening of the fundus. The reperfusion was confirmed visually when needle was withdrawn from the anterior chamber. One group of animals was treated with Vetropolycin® ophthalmic ointment (Pharmaderm, Melville, N. Y.) on the ischemic eyes and allowed to recover for 24 hours, 48 hours, 7 days and 14 days before sacrifice. Other groups were kept for intravitreous injections of the PEDF and PEDF peptides.
Intravitreous injection of PEDF, PEDF peptides and encapsulated PEDF peptide: One group of animals remained uninjected to monitor ischemic damage. All other groups received intravitreal injections, which were performed under an ophthalmic microscope. Experimental groups received 1 μl native PEDF protein (1 μg/μl), PEDF82-121 peptide (1 μg/μl), PEDF76-95 peptide (1 μg/μl), PEDF91-110 peptide (1 μg/μl), PEDF106-125 peptide (1 μg/μl) or PLGA PEDF82-121 nanospheres (0.1 mg/μl, less than 1.6 μg PEDF82-121 peptide when fully released) immediately after the end of the transient ischemia. Intravitreous injection was performed with 30-gauge beveled needle attached to PE10 polyethylene tubing and a 10 μl syringe (Hamilton, Reno, Nev.). The injections were performed through the sclera, approximately 1 mm behind the limbus. The needle remained in the vitreous cavity for 30 seconds after injection then gently withdrawn. […]

VEGFR1 = VEGFR1 (Homo sapiens, UniProt P17948); test: VEGFR1 binding; settings: compared to PEDF purified from human plasma or recombinant non-modified human PEDF
VEGFR2 = VEGFR2 (Homo sapiens, UniProt P35968); test: Block of VEGFR2 phosphorylation; settings: compared to recombinant, non-modified human PEDF
VEGF = test: Block of VEGF mitogenic signaling; settings: compared to recombinant, non-modified human PEDF
[2] = target: VEGF receptor KDR (VEGFR2) (Homo sapiens, UniProt P35968); test: ELISA binding to VEGF receptor KDR
[3] = 7 days post ischemia, free single bolus or nanospheres
[4] = 48 hours after ischemia reperfusion

Sequence of VEGFR1 (P17948 27-1338, species assumed): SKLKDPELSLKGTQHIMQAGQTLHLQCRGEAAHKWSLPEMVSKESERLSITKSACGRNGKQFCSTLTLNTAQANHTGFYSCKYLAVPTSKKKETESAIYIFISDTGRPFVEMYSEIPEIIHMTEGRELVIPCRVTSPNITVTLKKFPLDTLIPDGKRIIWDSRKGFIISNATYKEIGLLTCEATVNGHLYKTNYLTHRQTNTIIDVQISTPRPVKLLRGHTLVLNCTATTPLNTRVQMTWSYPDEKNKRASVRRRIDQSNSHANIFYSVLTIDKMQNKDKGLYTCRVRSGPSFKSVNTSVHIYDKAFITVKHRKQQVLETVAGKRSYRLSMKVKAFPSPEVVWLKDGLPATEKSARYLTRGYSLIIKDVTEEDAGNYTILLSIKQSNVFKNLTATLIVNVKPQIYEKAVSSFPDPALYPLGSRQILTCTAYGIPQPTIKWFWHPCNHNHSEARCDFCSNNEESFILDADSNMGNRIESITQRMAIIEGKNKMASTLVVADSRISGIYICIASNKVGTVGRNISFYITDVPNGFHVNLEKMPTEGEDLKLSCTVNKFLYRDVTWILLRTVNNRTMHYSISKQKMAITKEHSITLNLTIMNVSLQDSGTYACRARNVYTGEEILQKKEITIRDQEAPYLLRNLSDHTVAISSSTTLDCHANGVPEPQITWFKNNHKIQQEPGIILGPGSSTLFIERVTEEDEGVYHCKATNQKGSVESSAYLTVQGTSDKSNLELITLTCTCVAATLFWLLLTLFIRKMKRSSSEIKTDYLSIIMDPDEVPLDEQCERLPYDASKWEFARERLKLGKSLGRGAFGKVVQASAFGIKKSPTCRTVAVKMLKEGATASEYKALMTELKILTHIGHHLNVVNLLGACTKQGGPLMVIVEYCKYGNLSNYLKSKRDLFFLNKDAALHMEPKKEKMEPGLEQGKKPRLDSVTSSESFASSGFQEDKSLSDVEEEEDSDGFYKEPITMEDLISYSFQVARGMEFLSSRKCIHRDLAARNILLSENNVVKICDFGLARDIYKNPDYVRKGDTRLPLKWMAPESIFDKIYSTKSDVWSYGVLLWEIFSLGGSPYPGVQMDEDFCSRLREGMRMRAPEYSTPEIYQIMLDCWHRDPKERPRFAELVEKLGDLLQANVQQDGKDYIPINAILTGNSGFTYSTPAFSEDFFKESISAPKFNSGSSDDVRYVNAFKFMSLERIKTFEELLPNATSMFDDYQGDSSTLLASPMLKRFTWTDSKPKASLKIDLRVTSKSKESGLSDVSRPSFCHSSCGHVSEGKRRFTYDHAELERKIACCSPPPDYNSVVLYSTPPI
Sequence of VEGF receptor KDR (VEGFR2) (P35968 20-1356, species assumed): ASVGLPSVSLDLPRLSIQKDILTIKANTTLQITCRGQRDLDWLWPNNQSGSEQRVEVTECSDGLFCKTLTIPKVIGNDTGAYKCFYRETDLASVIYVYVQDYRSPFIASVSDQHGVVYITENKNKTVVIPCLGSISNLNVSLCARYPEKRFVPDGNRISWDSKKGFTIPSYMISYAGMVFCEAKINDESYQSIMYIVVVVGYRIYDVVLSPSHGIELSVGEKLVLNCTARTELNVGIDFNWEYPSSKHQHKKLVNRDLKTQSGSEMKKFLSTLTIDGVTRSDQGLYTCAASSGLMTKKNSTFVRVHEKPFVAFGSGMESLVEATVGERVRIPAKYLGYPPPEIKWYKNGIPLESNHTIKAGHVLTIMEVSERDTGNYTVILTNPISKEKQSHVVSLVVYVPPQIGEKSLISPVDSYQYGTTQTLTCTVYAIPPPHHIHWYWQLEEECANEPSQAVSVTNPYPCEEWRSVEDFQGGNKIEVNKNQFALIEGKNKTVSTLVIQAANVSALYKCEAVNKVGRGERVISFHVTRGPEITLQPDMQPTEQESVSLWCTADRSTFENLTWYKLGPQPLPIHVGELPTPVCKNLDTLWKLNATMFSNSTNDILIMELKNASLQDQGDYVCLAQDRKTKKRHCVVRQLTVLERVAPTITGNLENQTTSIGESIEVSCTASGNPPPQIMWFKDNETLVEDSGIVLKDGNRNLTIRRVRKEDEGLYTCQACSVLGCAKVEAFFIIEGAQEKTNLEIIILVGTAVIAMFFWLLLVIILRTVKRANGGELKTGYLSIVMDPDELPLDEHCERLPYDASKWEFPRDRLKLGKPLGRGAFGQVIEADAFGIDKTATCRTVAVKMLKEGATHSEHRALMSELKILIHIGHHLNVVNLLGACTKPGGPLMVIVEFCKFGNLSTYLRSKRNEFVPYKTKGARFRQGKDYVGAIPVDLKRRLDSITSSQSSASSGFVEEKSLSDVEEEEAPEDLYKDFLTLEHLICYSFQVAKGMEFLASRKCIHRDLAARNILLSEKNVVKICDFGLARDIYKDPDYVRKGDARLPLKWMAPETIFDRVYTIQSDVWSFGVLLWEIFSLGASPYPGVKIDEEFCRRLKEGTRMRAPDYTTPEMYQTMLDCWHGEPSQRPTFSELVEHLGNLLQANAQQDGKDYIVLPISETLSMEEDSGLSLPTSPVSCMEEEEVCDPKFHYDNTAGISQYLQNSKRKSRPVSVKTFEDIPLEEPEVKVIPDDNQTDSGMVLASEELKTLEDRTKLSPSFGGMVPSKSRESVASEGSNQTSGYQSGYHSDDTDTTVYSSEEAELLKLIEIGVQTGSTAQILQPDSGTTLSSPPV
Sequence of VEGFR2 (P35968 20-1356, species assumed): as above

For “PEDF76-95: residues 76 to 95 of human PEDF, TNVLLSPLSVATALSALSLG (SEQ ID NO: 5) ((1)..(20) Residues 76-95 of human PEDF; listed as Homo sapiens)”, the “protection of the IPL (in words)” value ([1]; seven days after ischemic injury) was “protected” and the “protection of the INL (in words)” value ([1]; seven days after ischemic injury, versus control peptide PEDF136-155) was “protected the INL significantly”.

In the case of “PEDF91-110: residues 91 to 110 of human PEDF, ALSLGAEQRTESIIHRALYY (SEQ ID NO: 7) ((1)..(20) Residues 91-110 of human PEDF; listed as Homo sapiens)”, the “protection of the retinal ganglion cell layer (in words)” value [1, 3] is reported as “significantly protecting” and the “RGCs protected from dying after ischemic injury” value ([1]; after ischemic injury) is reported as “about 85%”.

“PEDF106-125: residues 106 to 125 of human PEDF, RALYYDLISSPDIHGTYKEL (SEQ ID NO: 9) ((1)..(20) Residues 106-125 of human PEDF; listed as Homo sapiens)” was tested, and the “protection of the retinal ganglion cell layer (in words)” value [1, 3] was “significantly protecting”.

B1: PEDF protein: full length pigment epithelium-derived factor, a 50 kD protein of the serpin family (protein, listed as Homo sapiens)
chain: MQALVLLLCIGALLGHSSCQNPASPPEEGSPDPDSTGALVEEEDPFFKVPVNKLAAAVSNFGYDLYRVRSSMSPTTNVLLSPLSVATALSALSLGADERTESIIHRALYYDLISSPDIHGTYKELLDTVTAPQKNLKSASRIVFEKKLRIKSSFVAPLEKSYGTRPRVLTGNPRLDLQEINNWVQAQMKGKLARSTKEIPDEISILLLGVAHFKGQWVTKFDSRKTSLEDFYLDEERTVRVPMMSDPKAVLRYGLDSDLSCKIAQLPLTGSMSIIFFLPLKVTQNLTLIEESLTSEFIHDIDRELKTVQAVLTVPKLKLSYEGEVTKSLQEMKLQSLFDSPDFSKITGKPIKLTQVEHRAGFEWNEDGAGTTPSPGLQPAHLTFPLDYHLNQPFIFVLRDTDTGALLFIGKILDPRGP
In the case of B1, the “surviving cells in the RGC layer compared with non-ischemia control” value [1, 4] is reported as 85.4%, the “thickness of the INL compared with non-ischemia control” value [1, 4] is reported as 100% and the “thickness of the IPL compared with non-ischemia control” value [1, 4] is reported as 86.6%. The “protection of the retinal ganglion cell layer (in words)” value ([1]; 48 hours post ischemia, versus PBS or PEDF136-155) was “significantly reduced cell death”, the “surviving cells in the RGC layer compared with non-ischemia control” value ([1]; 7 days after injury) was 87.4% and the “thickness of the INL compared with non-ischemia control” value ([1]; 7 days after injury) was 82.5%. The “thickness of the IPL compared with non-ischemia control” value ([1]; 7 days after injury) was 78.2%, the “protection of the retinal ganglion cell layer (in words)” value [1, 3] was “significantly reduced cell death” and the “IPL thickness after ischemic injury (in words)” value ([1]; compared to PBS injected controls, time not stated) was “prevented the thinning of the IPL”. For the same molecule, the “GFAP labeling compared to PBS injections” value (GFAP; 48 hours after transient ischemia) was “less GFAP labeling” and the GFAP staining (GFAP; 7 days after injury) was “very similar staining”.

B2: coPEDF: bacterially expressed codon-optimized fusion protein: thioredoxin, His6 tag, thrombin site and S-Tag fused N-terminally to human PEDF (protein)
chain: QNPASPPEEGSPDPDSTGALVEEEDPFFKVPVNKLAAAVSNFGYDLYRVRSSMSPTTNVLLSPLSVATALSALSLGADERTESIIHRALYYDLISSPDIHGTYKELLDTVTAPQKNLKSASRIVFEKKLRIKSSFVAPLEKSYGTRPRVLTGNPRLDLQEINNWVQAQMKGKLARSTKEIPDEISILLLGVAHFKGQWVTKFDSRKTSLEDFYLDEERTVRVPMMSDPKAVLRYGLDSDLSCKIAQLPLTGSMSIIFFLPLKVTQNLTLIEESLTSEFIHDIDRELKTVQAVLTVPKLKLSYEGEVTKSLQEMKLQSLFDSPDFSKITGKPIKLTQVEHRAGFEWNEDGAGTTPSPGLQPAHLTFPLDYHLNQPFIFVLRDTDTGALLFIGKILDPRGP
modifications: left off: large carriers; small tags and cut ends
notes: bacterially expressed codon-optimized fusion protein: thioredoxin, His6 tag, thrombin site and S-Tag fused N-terminally to human PEDF
In the case of B2, the VEGFR1 binding (VEGFR1) is reported as “increased VEGFR1 binding”, the “block of VEGFR2 phosphorylation” value (VEGFR2) is reported as “greater effect” and the “block of VEGF mitogenic signaling” value (VEGF) is reported as “greater effect”. For the same molecule, the “binding to VEGF receptor KDR (VEGFR2)” value [2] was “improves binding”.
